Data: article PMC8568920, “Serum apolipoprotein A-I potentiates the therapeutic efficacy of lysocin E against Staphylococcus aureus” (Nature Communications, 2021)

Assays:
[1] = target: biotinylated lysocin E derivative, Bu-type; assay: BLI; BLItz system, room temperature; biotinylated ligand (0.1 mg/ml) immobilised on a streptavidin biosensor; PBS with 0.05% Tween-20; 300 s association and 300 s dissociation
[2] = target: biotinylated lysocin E derivative, natural type; assay: as above

recombinant human apolipoprotein A-I, wild type (from UniProt P02647 19-267) (natural protein)
Kd [1]: 3.4 µM | Kd [2]: 3.6 µM
